# T1: human CD98, endogenously expressed on Molt-4 human acute lymphoblastic leukemia cells (human)
# T1 chain: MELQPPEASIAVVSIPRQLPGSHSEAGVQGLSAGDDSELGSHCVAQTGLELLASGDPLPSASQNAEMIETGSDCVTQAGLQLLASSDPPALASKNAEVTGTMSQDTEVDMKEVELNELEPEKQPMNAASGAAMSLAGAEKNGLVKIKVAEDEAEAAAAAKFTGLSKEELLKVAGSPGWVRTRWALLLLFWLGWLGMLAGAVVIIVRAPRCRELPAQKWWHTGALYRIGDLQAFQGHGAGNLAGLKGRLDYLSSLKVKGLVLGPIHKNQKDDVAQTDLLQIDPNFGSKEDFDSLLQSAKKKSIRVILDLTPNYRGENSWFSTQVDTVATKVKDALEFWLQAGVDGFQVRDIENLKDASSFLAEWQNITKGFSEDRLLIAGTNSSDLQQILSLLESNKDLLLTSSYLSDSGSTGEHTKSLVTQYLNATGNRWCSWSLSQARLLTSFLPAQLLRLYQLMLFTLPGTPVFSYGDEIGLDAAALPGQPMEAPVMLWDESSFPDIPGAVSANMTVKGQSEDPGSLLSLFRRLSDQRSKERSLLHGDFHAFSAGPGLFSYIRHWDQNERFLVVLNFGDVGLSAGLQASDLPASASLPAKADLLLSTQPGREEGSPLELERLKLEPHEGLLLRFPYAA
# T2: human CD98 on the cell surface (human)
# T2 chain: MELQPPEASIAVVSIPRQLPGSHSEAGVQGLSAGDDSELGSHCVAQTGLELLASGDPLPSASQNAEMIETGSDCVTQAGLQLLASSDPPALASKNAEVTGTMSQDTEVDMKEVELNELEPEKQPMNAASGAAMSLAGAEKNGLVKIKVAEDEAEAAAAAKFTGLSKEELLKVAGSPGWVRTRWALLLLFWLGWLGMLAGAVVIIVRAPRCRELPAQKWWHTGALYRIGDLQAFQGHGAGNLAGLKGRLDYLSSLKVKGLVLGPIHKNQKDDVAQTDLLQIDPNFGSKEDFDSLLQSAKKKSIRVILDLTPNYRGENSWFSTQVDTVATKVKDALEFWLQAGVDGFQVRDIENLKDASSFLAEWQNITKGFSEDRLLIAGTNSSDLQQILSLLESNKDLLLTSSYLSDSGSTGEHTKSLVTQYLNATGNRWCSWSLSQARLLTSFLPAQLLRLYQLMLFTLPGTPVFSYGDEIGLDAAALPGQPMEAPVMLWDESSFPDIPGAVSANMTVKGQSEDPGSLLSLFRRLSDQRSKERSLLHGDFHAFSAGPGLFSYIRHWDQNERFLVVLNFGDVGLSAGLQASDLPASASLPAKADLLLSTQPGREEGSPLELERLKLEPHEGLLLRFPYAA
# B1: CD98 (CL-huAb110)-YG (antibody, human IgG1, kappa, L234A L235A, V domains shown)
# VH: EVQLVQSGAEVKKPGASVKVSCKASGFTFSDYTMAWVRQAPGQGLEWVATIIYDARGTYYRDAVKGRFTITRDNSTSTLYLELSSLRSEDTAVYYCARQSDDTYYYWGYFDYWGQGTMVTVSS
# VL: DIVMTQTPLSLPVTPGEPASINCKSSQSLLFSGNQKNYLAWYLQKPGQSPQLLIYWASTRQSGVPDRFSGSGSGTDFTLKISRVEAEDVGIYYCQQYYSSPYTFGQGTKLEIKR
# modifications: synthon YG on reduced cysteine (see heavy chain); Bcl-xL inhibitor synthon YG on cysteines freed by TCEP reduction (Method E); DAR 2.8 by MS for the whole ADC
# B2: CD98 (CL-huAb104)-YG (antibody, human IgG1, kappa, L234A L235A, V domains shown)
# VH: EVQLVESGGGLVQPGGSLRLSCATSGFTFIDYYMSWVRQAPGKGLEWLGFIRNKAYGYTTEYSASVKGRFTISRDNSKSILYLQMNSLKTEDTAVYYCTRDRPAWFVYWGQGTLVTVSS
# VL: DIVMTQTPLSLPVTPGEPASISCKSSQSLLYSSNQKNYLAWYLQKPGQSPQLLIYWASTRESGVPDRFSGSGSGTDFTLKISRVEAEDVGVYYCQQYYSYPYTFGGGTKVEIKR
# modifications: synthon YG on reduced cysteine (see heavy chain); Bcl-xL inhibitor synthon YG on cysteines freed by TCEP reduction (Method E); DAR 1.3 by MS for the whole ADC
# B3: CD98 (CL-huAb110)-SR (antibody, human IgG1, kappa, L234A L235A, V domains shown)
# VH: EVQLVQSGAEVKKPGASVKVSCKASGFTFSDYTMAWVRQAPGQGLEWVATIIYDARGTYYRDAVKGRFTITRDNSTSTLYLELSSLRSEDTAVYYCARQSDDTYYYWGYFDYWGQGTMVTVSS
# VL: DIVMTQTPLSLPVTPGEPASINCKSSQSLLFSGNQKNYLAWYLQKPGQSPQLLIYWASTRQSGVPDRFSGSGSGTDFTLKISRVEAEDVGIYYCQQYYSSPYTFGQGTKLEIKR
# modifications: synthon SR on reduced cysteine (see heavy chain); Bcl-xL inhibitor synthon SR on cysteines freed by TCEP reduction (Method A); DAR printed as '.0.7' by MS for the whole ADC
# B4: CD98 (CL-huAb102)-SE (antibody, human IgG1, kappa, L234A L235A, V domains shown)
# VH: EVQLVESGGGLVQPGGSLRLSCATSGFTFIDYYMSWVRQAPGKGLEWLGFIRNKANRYTTEYSASVKGRFTISRDNSKSILYLQMNSLKTEDTAVYYCTRDRPAWFVYWGQGTLVTVSS
# VL: DIVMTQTPLSLPVTPGEPASISCKSSQSLLYSSNQKNYLAWYLQKPGQSPQLLIYWASTRESGVPDRFSGSGSGTDFTLKISRVEAEDVGVYYCQQYYSYPYTFGGGTKVEIKR
# modifications: synthon SE on reduced cysteine (see heavy chain); Bcl-xL inhibitor synthon SE on cysteines freed by TCEP reduction (Method A); DAR 2.2 by MS for the whole ADC
# B5: CD98 (CL-huAb104)-KZ (antibody, human IgG1, kappa, L234A L235A, V domains shown)
# VH: EVQLVESGGGLVQPGGSLRLSCATSGFTFIDYYMSWVRQAPGKGLEWLGFIRNKAYGYTTEYSASVKGRFTISRDNSKSILYLQMNSLKTEDTAVYYCTRDRPAWFVYWGQGTLVTVSS
# VL: DIVMTQTPLSLPVTPGEPASISCKSSQSLLYSSNQKNYLAWYLQKPGQSPQLLIYWASTRESGVPDRFSGSGSGTDFTLKISRVEAEDVGVYYCQQYYSYPYTFGGGTKVEIKR
# modifications: synthon KZ on reduced cysteine (see heavy chain); Bcl-xL inhibitor synthon KZ on cysteines freed by TCEP reduction (Method A); DAR 2.6 by MS for the whole ADC
# B6: ChAb8-CZ (other)
# VH: EVQLVESGGGLVQPGRSLKLSCAASGFTFSDYAMAWVRQAPKKGLEWVASIIYDGRGTYYRDSVKGRFTISRDNAKSTLYLQMDSLRSEDTATYYCARQGDGTYYYWGYFDYWGQGVMVTVSS
# VL: DIVMTQSPSSLAVSAGETVTINCKSSQSLLSSGNQKNYLAWYQQKPGQSPKLLIYWASTRQSGVPDRFIGSGSGTDFTLTINSVQAEDLAIYYCQQYYDTPYTFGAGTKLELK
# modifications: synthon CZ on reduced interchain Cys of the constant regions (sites not numbered)
# B7: ChAb1-CZ (other)
# VH: EVKLVESGGGLVQPGGSLRLSCATSGFTFTDYYMSWVRQPPGKALEWLGFIRNPANVYTTEYSASVKGRFTISRDNSQSILYLQMNTLRAEDSATYYCARASYGNSEGWFAYWGQGTLVTVSA
# VL: DIVMSQSPSSLAVSVGEKVTMSCKSSQNLLYNNNQKNYLAWYQQKPGQSPKLLIYWASTRESGVPDRFTGSGSGTDFTLTISSVKAEDLAVYYCQQYYSYPRTFGGGTKLEIK
# modifications: synthon CZ on reduced interchain Cys of the constant regions (sites not numbered)
# B8: ChAb5-CZ (other)
# VH: EVKLVESGGGLVQPGGSLRLSCATSGFTFTDYYMTWVRQPPGKALEWLGFIRNKANGYTTEYSASVKGRFTISRDNSLSILYLQMNTLRAEDSATYYCARASYVNSEGWFAYWGQGTLVTVSA
# VL: DIVMSQSPSSLAVSVGEKVTMSCKSSQSLLYSSNQKNYLAWYQQKLGQSPKLLIYWASTRESGVPDRFTGSGSGTDFTLTISSVKAEDLAVYYCQHYYSYPRTFGGGTKLEIK
# modifications: synthon CZ on reduced interchain Cys of the constant regions (sites not numbered)
# B9: ChAb3-CZ (other)
# VH: EVKLVESGGGLVQPGNSLRLSCATSGFTFIDYYMSWVRQSPGKALEWLGFIRNKANGYTTEYSASVKGRFTISRDNSQSILYLQMDTLRAEDSATYYCTRDRPAWFVYWGQGTLVTVSA
# VL: DIVMSQSPSSLAVSVGEKVTMSCKSSQSLLYSSNQKNYLAWYQQKPGQSPKLLIYWASTRESGVPDRFTGSGSGTDFTLTFSSVRAEDLAVYYCQQYYSYPYTFGGGTKLEIK
# modifications: synthon CZ on reduced interchain Cys of the constant regions (sites not numbered)
# Target: T1, human CD98, endogenously expressed on …
# Test: cell-based or functional assay
Binder,% Cell Viability at 50 nM (Molt-4) [%],"Molt4 IC50 (nM), 50% inhibition of cell proliferation, 72 h, ATPlite [nM]"
B1,10,0.493
B2,25.3,2.67
B3,11,0.332
B4,19.7,0.107
B5,21.2,0.089

# Target: T2, human CD98 on the cell surface
# Test: cell-based or functional assay
Binder,"ADC potency, IC50 (nM), H146 (SCLC) growth inhibition [nM]","ADC potency, IC50 (nM), H2170 (NSCLC) growth inhibition [nM]","ADC potency, IC50 (nM), MOLT4 (leukemia) growth inhibition [nM]"
B6,0.094,0.112,0.038
B7,~0.196,0.276,0.071
B8,~0.188,0.161,0.029
B9,0.255,~0.171,0.026

# — US20200121803A1 (published 2020)
